According to US20190367615A1 (BEIJING HANMI PHARM, published 2019):

What was measured:
[1] = target: T1, Recombinant human CTLA4 (Sino Biological Inc.) (human, UniProt P16410 36-162); test: binding specificity ELISA, coated recombinant human CTLA4, anti-human IgG-HRP
T1 sequence (looked up): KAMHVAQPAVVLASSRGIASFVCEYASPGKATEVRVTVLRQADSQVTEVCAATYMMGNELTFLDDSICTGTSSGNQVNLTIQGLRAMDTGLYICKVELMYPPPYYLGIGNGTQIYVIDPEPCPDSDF
Method: (§1) The plate was washed five times with PBST and blocked with 300 μL/well of PBST containing 1% BSA and incubated at 25° C. for 1 hour. The plate was washed five times with PBST. […] The plate was washed five times with PBST. Then, horseradish peroxidase-labeled anti-human IgG antibody (Chemicon, Catalog Number AP309P) 1:2000 diluted in PBST containing 1% BSA was added, 100 μL was added to each well, incubated at 25° C. for 1 hour. The plate was washed five times with PBST. 100 μL/well of colorimetric substrate TMB was added and incubated at room temperature for 10 minutes. Color development was terminated by adding 100 μL/well of 1 M H₂SO₄. The absorbance at 450 nm was read on a microplate reader.

[2] = target: T2, Recombinant human PD-1 (Sino Biological Inc., Catalog Number 10377-H08H) (human, UniProt Q15116 25-167); test: species specificity ELISA, coated recombinant human PD-1 (1 ug/mL), anti-human IgG-HRP, OD450nm
T2 construct: Bought protein; also called antigen PD-1
Method: (§2) Recombinant human PD-1, monkey PD-1, rat PD-1 and mouse PD-1 (all purchased from Sino Biological Inc.), were coated on a 96-well high-absorbing ELISA plate with a carbonate buffer solution with pH 9.6, the coating concentration was 1 μg/mL, the coating amount was 100 μL per well, and the coating was carried out at 4° C. overnight. The plate was washed five times with PBST and blocked with 300 μL/well of PBST containing 1% BSA, and then incubated at 25° C. for 1 hour. The plate was washed five times with PBST. […] The plate was washed five times with PBST. Then, horseradish peroxidase-labeled anti-human IgG antibody (Chemicon, Catalog Number AP309P) 1:2000 diluted in PBST containing 1% BSA was added, 100 μL per well, incubated at 25° C. for 1 hour. The plate was washed five times with PBST. 100 μL/well of colorimetric substrate TMB was added and incubated at room temperature for 10 minutes. Color development was terminated by adding 100 μL/well of 1 M H₂SO₄: The absorbance at 450 nm was read on a microplate reader.

[3] = target: T3, Recombinant mouse PD-1 (Sino Biological Inc.) (mouse, UniProt Q02242 25-167); test: species specificity ELISA, coated recombinant mouse PD-1, anti-human IgG-HRP
T3 sequence (looked up): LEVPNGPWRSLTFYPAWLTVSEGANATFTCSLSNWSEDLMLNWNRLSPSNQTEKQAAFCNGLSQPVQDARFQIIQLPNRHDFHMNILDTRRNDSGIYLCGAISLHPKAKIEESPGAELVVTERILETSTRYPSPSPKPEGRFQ
Method: as §2

[4] = target: T4, Recombinant human ICOS (Sino Biological Inc.) (human, UniProt Q9Y6W8 21-141); test: binding specificity ELISA, coated recombinant human ICOS, anti-human IgG-HRP
T4 sequence (looked up): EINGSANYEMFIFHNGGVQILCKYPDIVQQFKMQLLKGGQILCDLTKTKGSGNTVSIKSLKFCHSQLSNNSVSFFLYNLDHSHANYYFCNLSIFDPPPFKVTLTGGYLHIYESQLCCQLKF
Method: as §1

[5] = target: Recombinant monkey PD-1 (Sino Biological Inc.) (monkey); test: species specificity ELISA, coated recombinant monkey PD-1 (1 ug/mL), anti-human IgG-HRP, OD450nm
Method: as §2

[6] = target: T2, Recombinant human PD-1 (Sino Biological …); test: SPR (Biacore X100), antibody captured on anti-human IgG CM5 chip, PD-1 as analyte
Method: The instrument utilizes an optical surface plasmon resonance technique to detect association and dissociation between a molecule coupled on a sensor chip and an analyte. CM5 chips (GE Healthcare, BR-1000-12) were used. […] In the association phase, the antigen PD-1 was diluted to multiple concentrations with a running buffer, and injected at a rate of 30 μL/min for 180 seconds. In the dissociation phase, the duration of the dissociation was 1200 seconds. Glycine solution (GE Healthcare, BR-1003-54) was used to regenerate for 30 seconds at a speed of 10 μL/min. […] Association rate constant and dissociation rate constant were analyzed and calculated by Biacore X100 evaluation software.

[7] = target: T5, Recombinant human B7-H2 (Sino Biological Inc.) (human, UniProt O75144 19-256, limits assumed); test: binding specificity ELISA, coated recombinant human B7-H2, anti-human IgG-HRP
T5 sequence (looked up): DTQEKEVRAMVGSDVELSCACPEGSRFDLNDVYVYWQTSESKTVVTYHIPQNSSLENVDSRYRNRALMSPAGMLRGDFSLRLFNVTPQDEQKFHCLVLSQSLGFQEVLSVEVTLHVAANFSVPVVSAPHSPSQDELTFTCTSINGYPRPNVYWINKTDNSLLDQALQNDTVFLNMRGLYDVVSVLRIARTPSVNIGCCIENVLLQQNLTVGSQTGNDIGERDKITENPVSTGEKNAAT
Method: as §1

[8] = target: T6, Recombinant human CD80 (Sino Biological Inc.) (human, UniProt P33681 35-242); test: binding specificity ELISA, coated recombinant human CD80, anti-human IgG-HRP
T6 sequence (looked up): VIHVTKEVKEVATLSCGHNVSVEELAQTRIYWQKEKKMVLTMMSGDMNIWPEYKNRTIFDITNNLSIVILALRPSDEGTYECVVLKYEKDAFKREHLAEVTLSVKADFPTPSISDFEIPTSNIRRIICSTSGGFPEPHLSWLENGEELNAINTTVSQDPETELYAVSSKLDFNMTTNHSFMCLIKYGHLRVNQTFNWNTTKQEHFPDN
Method: as §1

T2 sequence (Q15116 25-167 limits assumed): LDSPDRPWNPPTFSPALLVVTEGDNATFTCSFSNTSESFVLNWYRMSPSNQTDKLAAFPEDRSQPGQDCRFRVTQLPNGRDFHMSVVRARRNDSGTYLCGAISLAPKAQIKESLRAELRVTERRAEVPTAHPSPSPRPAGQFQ

binding result [1]: no binding
EC50 [2]: 0.092 nM
binding result [3]: no binding (tested: about 20 nM)
binding result [4]: no binding
EC50 [5]: 0.1 nM
Kd [6]: 1.37 nM
koff [6]: 0.000295 s⁻¹
kon [6]: 215000 M⁻¹ s⁻¹
binding result [7]: no binding
binding result [8]: no binding
B1: anti-human PD-1 chimeric monoclonal antibody (antibody, human IgG4 S228P, kappa, V domains shown)
VH: EVQLQESGGGLVKPGGSLKLSCAASGFTFSSYGMSWVRQTPEKRLEWVASISGGGRYTYYPDSMKGRFTISRDNAKNNLHLQMSSLRSEDTALYYCVYEYFYTMDYWGQGTSVTVSS
VL: DIVLTQSPATLSVTPGDSVSLSCRANQSISNNLHWYQQRSHESPRLLIRFASQSISGIPSRFSGSGSGTDFTLSINSVETEDFGMYFCQQSDNWPLTFGAGTKLEIKR
notes: expressed in 293F cells; also called Anti-human PD-1 Chimeric Antibody; chimeric anti-human PD-1 monoclonal antibody
